From the supplement of paper PMC10567573

B1: EPB41L3 (parent)
chain: KKFLTLGSKFRYSGRTQAQTRRAS
B2: DFFB (parent)
chain: KLNCDPSRIYKPQTRLKRKQPVRK

Variants of: B1
Test: protein stability index of a GFP-peptide fusion (GPS, HEK-293T) (PSI 1-6); higher = more stable
Conditions: c terminus: a fixed tail appended
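Further: lentivirally expressed fusions sorted by FACS into six bins by GFP to DsRed ratio, PSI derived from sequencing read proportions per bin multiplied by bin number.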

Protein stability index of substitutions, site by site:
Q17: N 2.01 | Y 2.12
R21: S 3.24 | D 2.69 | V 3.27 | W 2.85 | M 1.86 | N 2.1 | F 1.98 | T 2.24 | I 2.16 | E 2.2 | K 3.75 | A 1.96 | Y 2.48 | L 1.61
R11: S 3.4 | F 2.48 | C 3.96 | H 3.7 | T 3.6 | D 4.24 | A 3.11 | P 3.08 | V 3.17 | L 2.43 | G 3.57 | N 2.63 | I 2.89 | K 2.92
R22: M 1.75 | N 1.87 | P 2.52 | I 2.02 | T 3.24 | Q 2.44 | Y 2.13 | K 3.1 | W 1.41 | E 2.72 | V 2.64 | S 2.7 | F 2.05 | L 2.19 | A 2.08 | D 2.24
S24: R 3.68 | M 2.5 | G 2.65 | L 2 | T 3.46 | D 3.31 | N 2.83 | K 3.64 | H 2.25 | C 2.1 | F 2.36 | Y 2.66 | P 2.57 | Q 2.51 | I 2.5 | W 2.57 | V 2.15
Y12: F 2.6 | Q 3.82 | T 3.96 | R 4.02 | A 4.58 | M 3.9 | K 3.01 | C 2.54 | I 3.69 | P 3.23
F10: I 3.63 | S 4.22 | Q 3.88 | D 3.88 | V 2.92 | M 3.59 | T 3.54 | H 4.22 | K 4.16 | W 2.77 | L 4.09 | N 3.59 | Y 3.21 | P 4.07 | C 3.11

Variants of: B2
Test: as above
Conditions: c terminus: a fixed tail appended

Protein stability index of substitutions, site by site:
D5: A 3.46 | E 2.9 | C 4.16
N3: M 3.19 | T 3.96 | A 4.21 | R 4.24 | S 4.17 | F 3.03 | E 4.44 | C 3.73 | Q 3.53 | L 3.06 | V 3.96 | H 3.75 | P 3.97 | Y 3.29 | G 4.4 | I 2.89 | W 3.21 | K 4.07 | D 4.07
C4: Q 3.78 | V 4.06 | D 3.88 | G 2.77 | E 3.65 | R 4.12 | W 3.56 | T 3.62 | L 3.24 | F 3.5 | Y 3.51 | N 3.74 | M 2.35 | P 4.03 | H 3.5 | S 3.66 | K 3.58 | A 3.75 | I 2.73
L2: S 4.16 | D 4.89 | P 4.57 | H 2.95 | R 4.01 | M 4.09 | I 3.2 | T 4.12 | A 4.27 | N 4.5 | Y 3.55 | F 3.96 | C 3.55 | Q 4.16 | K 2.28 | W 2.73 | V 4.01 | G 4.94 | E 4.52
K1: G 3.13 | N 3.47 | R 4.11 | H 1.93 | L 3.8 | Y 3.24 | F 2.63 | Q 3.37 | T 3.87 | C 3.2 | W 3.65 | I 2.06 | D 4.23 | E 3.42 | A 4.14 | P 3.54 | M 2.65 | V 3.57 | S 2.92
